According to patent publication US20240117030A1 (Pfizer, published 2024):

T1: human IL-4 (human, UniProt P05112 25-153)
T1 sequence (looked up): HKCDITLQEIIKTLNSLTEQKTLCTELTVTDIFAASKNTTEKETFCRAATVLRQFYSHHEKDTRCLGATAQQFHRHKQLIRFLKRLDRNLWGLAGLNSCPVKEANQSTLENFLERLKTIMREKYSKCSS


What was measured:
human IL-13 = human IL-13 (human, UniProt P35225 35-146); assay: cell-based or functional assay
human IL-4 = target: T1, human IL-4; assay: cell-based or functional assay

Chain of human IL-13 (P35225 35-146 limits assumed, form in doubt): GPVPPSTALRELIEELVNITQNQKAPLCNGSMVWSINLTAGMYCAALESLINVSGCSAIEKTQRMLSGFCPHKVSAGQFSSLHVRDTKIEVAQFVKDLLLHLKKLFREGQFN

| CD23: Fold bioactivity relative to IL13-0001 (human IL-13) | CD23: Fold bioactivity relative to IL13-1307 (human IL-13) | CD23 IC50 [pM] (human IL-13) | pSTAT6: Fold bioactivity relative to IL13-0001 (human IL-13) | pSTAT6: Fold bioactivity relative to IL13-1307 (human IL-13) | pSTAT6 IC50 [pM] (human IL-13) | CD23: Fold bioactivity relative to IL4-1285 (human IL-4) | CD23 IC50 [pM] (human IL-4) | Binder |
| --- | --- | --- | --- | --- | --- | --- | --- | --- |
| 0.9 fold | 26.5 fold | 11.5 pM | 1.1 fold | 1.6 fold | 87 pM |  |  | IL13-1338 (antibody, IgG1, V domains shown) VH: EVQLVESGGGLVQPGGSLRLSCAASGFTFSSYAMSWVRQAPGKGLEWVASISSGDTTYYPDSVKGRFTISRDNAKNSLYLQMNSLRAEDTAVYYCARNEGYYFGLTLWGQGTLVTVSS VL: DIQMTQSPSSLSASVGDRVTITCKASESVDHSGSSLMHWYQQKPGKAPKLLIYRASNLESGVPSRFSGSGSGTDFTLTISSLQPEDFATYYCQQSNEDPWTFGGGTKVEIK |
|  |  |  |  |  |  | 1.5 fold | 65.2 pM | IL4-1347 (antibody, human IgG1, kappa, V domains shown) VH: QVTLRESGPALVKPTQTLTLTCTFSGFSLSTSGMGVSWIRQPPGKGLEWLAHIYWDDDKRYNPSLKSRLTISKDTSRNQVVLTMTNMDPVDTATYYCARRETVFYWYFDVWGRGTPVTVSS VL: DIQMTQSPSSLSASVGDRVTITCKASQSVDEDGDSYMNWYQQKPGKAPKLLIYAASNLESGVPSRFSGSGSGTDFTLTISSLQPEDFATYYCQQSNEDPPTFGGGTKVEIKR |
|  |  |  |  |  |  | 5.4 fold | 17.9 pM | IL4-1350 (antibody, IgG1, V domains shown) VH: QVTLRESGPALVKPTQTLTLTCTFSGFSLSTWGSGVSWIRQPPGKGLEWLAHIYWDDDKRYNPSLKSRLTISKDTSRNQVVLTMTNMDPVDTATYYCARRETVFYWYFDVWGRGTPVTVSS VL: DIQMTQSPSSLSASVGDRVTITCKASQSVDEDGDSYMNWYQQKPGKAPKLLIYAASNLESGVPSRFSGSGSGTDFTLTISSLQPEDFATYYCQQSNEDPPTFGGGTKVEIK |
| 0.7 fold | 21.3 fold | 14.4 pM | 2.2 fold | 3.3 fold | 42.7 pM |  |  | IL13-1308 (antibody, IgG1, V domains shown) VH: EVQLVESGGGLVQPGGSLRLSCAASGFTFSSYAMSWVRQAPGKGLEWVASISSGDTTYYPDSVKGRFTISRDNAKNSLYLQMNSLRAEDTAVYYCARLDGYYFGFPYWGQGTLVTVSS VL: DIQMTQSPSSLSASVGDRVTITCKASESVDHFGWSLVHWYQQKPGKAPKLLIYRASNLESGVPSRFSGSGSGTDFTLTISSLQPEDFATYYCQQSNEDPWTFGGGTKVEIKR |
|  |  |  |  |  |  | 4.9 fold | 19.6 pM | IL4-1352 (antibody, IgG1, V domains shown) VH: QVTLRESGPALVKPTQTLTLTCTFSGFSLSNWGMGVSWIRQPPGKGLEWLAHIYWDDDKRYNPSLKSRLTISKDTSRNQVVLTMTNMDPVDTATYYCARRETVFYWYFDVWGRGTPVTVSS VL: DIQMTQSPSSLSASVGDRVTITCKASQSVDEDGDSYMNWYQQKPGKAPKLLIYAASNLESGVPSRFSGSGSGTDFTLTISSLQPEDFATYYCQQSNEDPPTFGGGTKVEIK |
|  |  |  |  |  |  | 5.7 fold | 16.8 pM | IL4-1358 (antibody, IgG1, V domains shown) VH: QVTLRESGPALVKPTQTLTLTCTFSGFSLSTWGEGVSWIRQPPGKGLEWLAHIYWDDDKRYNPSLKSRLTISKDTSRNQVVLTMTNMDPVDTATYYCARRETVFYWYFDVWGRGTPVTVSS VL: DIQMTQSPSSLSASVGDRVTITCKASQSVDEDGDSYMNWYQQKPGKAPKLLIYAASNLESGVPSRFSGSGSGTDFTLTISSLQPEDFATYYCQQSNEDPPTFGGGTKVEIK |
|  |  |  |  |  |  | 2.1 fold | 44.9 pM | IL4-1356 (antibody, IgG1, V domains shown) VH: QVTLRESGPALVKPTQTLTLTCTFSGFSLLTFGSGVSWIRQPPGKGLEWLAHIYWDDDKRYNPSLKSRLTISKDTSRNQVVLTMTNMDPVDTATYYCARRETVFYWYFDVWGRGTPVTVSS VL: DIQMTQSPSSLSASVGDRVTITCKASQSVDEDGDSYMNWYQQKPGKAPKLLIYAASNLESGVPSRFSGSGSGTDFTLTISSLQPEDFATYYCQQSNEDPPTFGGGTKVEIK |
